Source: paper PMC2756588

T1: Sla1-2, P32790
T1 sequence (P32790 60-140, looked up): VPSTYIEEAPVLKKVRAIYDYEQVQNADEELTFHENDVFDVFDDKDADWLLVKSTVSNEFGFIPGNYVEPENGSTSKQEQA

T2: Bzz1-2, P38822
T2 sequence (P38822 568-633, looked up): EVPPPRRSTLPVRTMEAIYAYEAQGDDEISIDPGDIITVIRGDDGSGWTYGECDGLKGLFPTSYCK

T3: Bud14, P27637
T3 sequence (P27637 247-328, looked up): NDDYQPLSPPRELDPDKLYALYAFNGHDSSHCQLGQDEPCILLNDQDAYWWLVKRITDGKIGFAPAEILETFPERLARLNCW

T4: Nbp2, Q12163
T4 sequence (Q12163 103-180, looked up): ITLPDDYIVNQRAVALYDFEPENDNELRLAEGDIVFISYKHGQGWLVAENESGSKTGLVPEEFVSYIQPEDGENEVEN

T5: Lsb1, P53281
T5 sequence (P53281 45-122, looked up): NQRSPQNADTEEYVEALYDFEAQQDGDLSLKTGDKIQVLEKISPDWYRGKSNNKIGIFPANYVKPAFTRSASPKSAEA

T6: Lsb3, P43603
T6 sequence (P43603 385-451, looked up): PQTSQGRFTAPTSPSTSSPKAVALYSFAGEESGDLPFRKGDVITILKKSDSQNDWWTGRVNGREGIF

T7: Abp1, P15891
T7 sequence (P15891 535-592, looked up): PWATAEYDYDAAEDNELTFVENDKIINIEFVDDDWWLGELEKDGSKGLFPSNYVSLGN

T8: Cyk3, Q07533
T8 sequence (Q07533 1-83, looked up): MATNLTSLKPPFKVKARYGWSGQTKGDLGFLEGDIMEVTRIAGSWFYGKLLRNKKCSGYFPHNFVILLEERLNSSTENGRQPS

T9: Pin3, Q06449
T9 sequence (Q06449 53-122, looked up): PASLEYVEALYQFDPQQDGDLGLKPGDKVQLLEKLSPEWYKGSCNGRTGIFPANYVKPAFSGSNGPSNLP

T10: Bzz1-1, P38822
T10 sequence (P38822 478-572, looked up): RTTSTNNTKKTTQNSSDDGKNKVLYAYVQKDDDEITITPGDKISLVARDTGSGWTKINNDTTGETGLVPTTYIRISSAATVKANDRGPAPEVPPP

T11: Boi2, P39969
T11 sequence (P39969 32-116, looked up): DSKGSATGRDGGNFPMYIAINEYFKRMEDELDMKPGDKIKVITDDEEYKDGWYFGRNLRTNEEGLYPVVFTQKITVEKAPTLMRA

T12: Myo5, Q04439
T12 sequence (Q04439 1072-1160, looked up): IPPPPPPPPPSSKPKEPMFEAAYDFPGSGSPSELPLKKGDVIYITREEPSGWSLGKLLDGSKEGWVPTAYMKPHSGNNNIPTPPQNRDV

T13: Bbc1, P47068
T13 sequence (P47068 1-78, looked up): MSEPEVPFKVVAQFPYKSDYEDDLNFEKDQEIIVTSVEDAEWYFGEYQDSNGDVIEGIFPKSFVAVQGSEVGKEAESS

T14: Boi1, P38041
T14 sequence (P38041 1-86, looked up): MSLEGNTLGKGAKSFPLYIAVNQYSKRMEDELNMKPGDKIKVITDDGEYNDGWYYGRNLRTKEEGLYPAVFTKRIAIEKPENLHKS

T15: Cdc25, P04821
T15 sequence (P04821 50-136, looked up): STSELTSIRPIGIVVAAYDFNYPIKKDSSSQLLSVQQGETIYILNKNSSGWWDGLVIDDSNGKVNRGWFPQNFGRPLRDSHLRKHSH

T16: Hse1, P38753
T16 sequence (P38753 208-285, looked up): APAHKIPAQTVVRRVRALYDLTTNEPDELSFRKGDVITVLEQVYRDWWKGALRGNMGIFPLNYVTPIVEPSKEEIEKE

T17: Lsb4, P32793
T17 sequence (P32793 402-468, looked up): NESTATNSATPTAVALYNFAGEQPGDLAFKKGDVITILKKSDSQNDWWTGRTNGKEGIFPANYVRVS

T18: Hof1, Q05080
T18 sequence (Q05080 590-669, looked up): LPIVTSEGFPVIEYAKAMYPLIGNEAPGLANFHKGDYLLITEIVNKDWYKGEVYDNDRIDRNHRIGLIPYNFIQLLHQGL

T19: Fus1, P11710
T19 sequence (P11710 432-512, looked up): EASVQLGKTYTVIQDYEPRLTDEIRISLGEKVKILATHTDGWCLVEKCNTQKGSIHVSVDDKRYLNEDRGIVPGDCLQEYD

T20: Sla1-3, P32790
T20 sequence (P32790 344-424, looked up): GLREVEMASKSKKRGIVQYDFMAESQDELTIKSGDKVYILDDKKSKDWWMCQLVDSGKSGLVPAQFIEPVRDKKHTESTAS

T21: Pex13, P80667
T21 sequence (P80667 295-386, looked up): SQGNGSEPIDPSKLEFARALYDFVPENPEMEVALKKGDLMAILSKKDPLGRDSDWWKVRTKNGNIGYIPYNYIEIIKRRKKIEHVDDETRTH


What was measured:
Assay in all cases: SPOT array
Sho1, P40073 = conditions: median of control spots 1148
Sla1-2, P32790 = target: T1, Sla1-2, P32790; conditions: median of control spots 712
Bzz1-2, P38822 = target: T2, Bzz1-2, P38822; conditions: median of control spots 4538
Bem1-1, P29366 = conditions: median of control spots 4282
Bud14, P27637 = target: T3, Bud14, P27637; conditions: median of control spots 956
Nbp2, Q12163 = target: T4, Nbp2, Q12163; conditions: median of control spots 357
Lsb1, P53281 = target: T5, Lsb1, P53281; conditions: median of control spots 388
Lsb3, P43603 = target: T6, Lsb3, P43603; conditions: median of control spots 406
Abp1, P15891 = target: T7, Abp1, P15891; conditions: median of control spots 935
Cyk3, Q07533 = target: T8, Cyk3, Q07533; conditions: median of control spots 1451
GST = conditions: median of control spots 978
Pin3, Q06449 = target: T9, Pin3, Q06449; conditions: median of control spots 2171
Bzz1-1, P38822 = target: T10, Bzz1-1, P38822; conditions: median of control spots 4446
Rvs167, P39743 = conditions: median of control spots 2707
Boi2, P39969 = target: T11, Boi2, P39969; conditions: median of control spots 1161
Myo5, Q04439 = target: T12, Myo5, Q04439; conditions: median of control spots 471
Bbc1, P47068 = target: T13, Bbc1, P47068; conditions: median of control spots 796
Boi1, P38041 = target: T14, Boi1, P38041; conditions: median of control spots 1162
Cdc25, P04821 = target: T15, Cdc25, P04821; conditions: median of control spots 969
Hse1, P38753 = target: T16, Hse1, P38753; conditions: median of control spots 1727
Lsb4, P32793 = target: T17, Lsb4, P32793; conditions: median of control spots 397
Bem1-2, P29366 = conditions: median of control spots 4347
Hof1, Q05080 = target: T18, Hof1, Q05080; conditions: median of control spots 4086
Myo3, P36006 = conditions: median of control spots 468
Fus1, P11710 = target: T19, Fus1, P11710; conditions: median of control spots 1200
Sla1-3, P32790 = target: T20, Sla1-3, P32790; conditions: median of control spots 5475
Pex13, P80667 = target: T21, Pex13, P80667; conditions: median of control spots 1341

Rvs167, P39743, sequence (P39743 419-482): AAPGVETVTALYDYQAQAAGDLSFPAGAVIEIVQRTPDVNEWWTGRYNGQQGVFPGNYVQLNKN
Sho1, P40073, sequence (P40073 287-367): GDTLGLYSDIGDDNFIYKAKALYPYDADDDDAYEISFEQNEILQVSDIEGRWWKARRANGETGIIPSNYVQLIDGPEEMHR
Bem1-2, P29366, sequence (P29366 139-227): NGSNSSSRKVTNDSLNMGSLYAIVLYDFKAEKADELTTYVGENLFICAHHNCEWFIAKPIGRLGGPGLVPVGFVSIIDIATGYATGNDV
Bem1-1, P29366, sequence (P29366 55-141): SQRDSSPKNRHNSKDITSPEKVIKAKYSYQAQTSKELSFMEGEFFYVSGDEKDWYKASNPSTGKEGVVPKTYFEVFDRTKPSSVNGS

Binder	SPOT intensity (Sho1, P40073)	SPOT intensity (Sla1-2, P32790)	SPOT intensity (Bzz1-2, P38822)	SPOT intensity (Bem1-1, P29366)	SPOT intensity (Bud14, P27637)	SPOT intensity (Nbp2, Q12163)	SPOT intensity (Lsb1, P53281)	SPOT intensity (Lsb3, P43603)	SPOT intensity (Abp1, P15891)	SPOT intensity (Cyk3, Q07533)	SPOT intensity (GST)	SPOT intensity (Pin3, Q06449)	SPOT intensity (Bzz1-1, P38822)	SPOT intensity (Rvs167, P39743)	SPOT intensity (Boi2, P39969)	SPOT intensity (Myo5, Q04439)	SPOT intensity (Bbc1, P47068)	SPOT intensity (Boi1, P38041)	SPOT intensity (Cdc25, P04821)	SPOT intensity (Hse1, P38753)	also measured
DKSRPPRPPPKPLHL	155	0	1	0	1	0	4	216	675	0	0	0	36	0	0	44	5	0	0	36	SPOT intensity (Lsb4, P32793): 177; SPOT intensity (Bem1-2, P29366): 57; SPOT intensity (Hof1, Q05080): 0; SPOT intensity (Myo3, P36006): 160; SPOT intensity (Fus1, P11710): 0; SPOT intensity (Sla1-3, P32790): 0; SPOT intensity (Pex13, P80667): 144
RPPRPPPKPLHLRTE	780	1	38	4	0	86	266	306	692	0	0	5	30	12	3	33	15	0	0	539	SPOT intensity (Lsb4, P32793): 201; SPOT intensity (Bem1-2, P29366): 458; SPOT intensity (Hof1, Q05080): 3; SPOT intensity (Myo3, P36006): 121; SPOT intensity (Fus1, P11710): 0; SPOT intensity (Sla1-3, P32790): 43; SPOT intensity (Pex13, P80667): 479
KDKSRPPRPPPKPLH	202	0	0	0	0	2	7	162	339	0	0	0	50	0	0	10	4	2	2	20	SPOT intensity (Lsb4, P32793): 114; SPOT intensity (Bem1-2, P29366): 0; SPOT intensity (Hof1, Q05080): 0; SPOT intensity (Myo3, P36006): 104; SPOT intensity (Fus1, P11710): 0; SPOT intensity (Sla1-3, P32790): 1; SPOT intensity (Pex13, P80667): 8
ALKQKKIPPPFKPHL	0	0	0	0	0	0	0	0	42	0	0	0	0	0	0	0	0	0	0	0	SPOT intensity (Lsb4, P32793): 0; SPOT intensity (Bem1-2, P29366): 0; SPOT intensity (Hof1, Q05080): 0; SPOT intensity (Myo3, P36006): 0; SPOT intensity (Fus1, P11710): 0; SPOT intensity (Sla1-3, P32790): 0; SPOT intensity (Pex13, P80667): 0
PHNPSPFFPPPDFND	0	0	0	0	0	0	0	0	0	0	0	0	0	0	0	244	0	0	0	0	SPOT intensity (Lsb4, P32793): 0; SPOT intensity (Bem1-2, P29366): 0; SPOT intensity (Hof1, Q05080): 0; SPOT intensity (Myo3, P36006): 319; SPOT intensity (Fus1, P11710): 0; SPOT intensity (Sla1-3, P32790): 0; SPOT intensity (Pex13, P80667): 70
ERPKRRAPPPVPKKP	311	0	791	0	0	58	326	188	673	0	0	11	160	10	0	180	282	0	4	57	SPOT intensity (Lsb4, P32793): 89; SPOT intensity (Bem1-2, P29366): 279; SPOT intensity (Hof1, Q05080): 0; SPOT intensity (Myo3, P36006): 358; SPOT intensity (Fus1, P11710): 0; SPOT intensity (Sla1-3, P32790): 2610; SPOT intensity (Pex13, P80667): 62
